Measured values published in patent US20170145086A1 (VISTERRA, published 2017).

B1: monoclonal antibody 4540 (antibody, V domains shown)
VH: QVQLQQSGPELVKPGASVKISCKASGYTFADYYINWVKQRPGQGLEWIGWIFPGSGSTYYNEKFKGKATLTVDKSSSTAYMLLSSLTSEDSAVYFCARGDSGRAMDYWGQGTSVTVSS
VL: DIQMTQSPSSLSASLGGKVTITCKASQDINKYIAWYQHKPGKGPRLLIHYTSTLQSGIPSRFSGSGSGRDYSFSISNLEPEDNATYYCLQYDNLLTFGAGTKLELK
notes: mouse-derived
B2: monoclonal antibody 3833 (antibody, V domains shown)
VH: QVQLQQSGAELVRPGTSVKMSCKAAGYTFTNYWIGWVKQRPGHGLEWIGDIYPGGIGGGYTKYNEKFKGKATLTADTSSSTAYMQLGSLTSEDSAIYFCSRSETGRAMDYWGQGTSVTVSS
VL: DIQMTQSPSSLSASLGGKVTITCKASQDINKYIAWYQHKPGKGPRLLIHYTSTLKPGIPSRFSGSGSGRDYSFSISDLEPEDIATYYCLQYDNLNTFGGGTKLEIK
notes: mouse-derived
B3: monoclonal antibody 2218 (antibody, mouse IgG2, V domains shown)
VH: DVQLQESGPGLVKPSQSLSLTCSVTGYSITSGYYWNWIRQFPGNKLEWMGYISYDGYNNYNPSLKNRISITRDTSKNQFFLKLNSVTTEDTATYYCANYYDYEDWYFGVWGTGTTVTVSS
VL: DIVLTQSPASLAMSLGKRATISCRASESVSIIGTNSIHWYQQKPGQPPKLLIYHASNLETGVPARFSGSGSRTDFTLTIDPVEEDDVAIYYCLQSRKIPYTFGGGTKLEIK
B4: monoclonal antibody 3631 (antibody, V domains shown)
VH: EIQLQQSGPELVKPGASVKVSCKASGYSFTDYNIYWVKQSHGKSLEWIGYIDPSNGGPGYNQKFRGKATLTVDKSSSTAFLHLNSLTSEDSAVYYCARRDNYGSGTMDYWGQGTSVTVSS
VL: DIVMTQSQKFMSTSVGDRVSITCKASQNVGTDVSWYQQKPGKSPKPLIYWASNRFTGVPDRFIGSGSGTDFTLTISNVQSEDLADYFCEQYSIYPLTFGAGTKLELK
notes: mouse-derived
B5: monoclonal antibody 3732 (antibody, V domains shown)
VH: EIQLQQSGPELVKPGASVKVSCKASGYSFTDDNMYWVKQSHGKSLEWIGYIDPLNGGTGYNQKFKGKATLTVDKSSSTAFLHLNSLTSEDSAVYYCARRDNYATGTMDYWGQGTSVTVSS
VL: DIVMTQSQKFMSTSVGDRVSITCKASKNVGTDVSWYQQKPGKSPKPLIYWASNRFTGVPDRFTGSGSGTDFTLTINNVQSEDLADYFCEQYSSYPLTFGAGTKLELK
notes: mouse-derived
B6: monoclonal antibody 3530 (antibody, mouse IgG2, V domains shown)
VH: QVQLQQSGAELVRPGASVKLSCKASGYTFTDHEMHWVRQTPVHGLEWIGVIDPDTGDTTYNQKFKGKATLTADKSSSTAYMDLRSLTSEDSAVFYCTRWTGGDYWGHGTTLTVSS
VL: DAVMTQTPLSLSVTIGQPASISCKSSQSLLYSDGKTYLNWFQQRPGQSPKRLMYQVSKLDPGIPDRFSGSGSETDFTLKISRVEAEDLGVYYCLQGTYYPYTFGSGTKLEIK
B7: 4237 (antibody, V domains shown)
VH: QAHLKESGPGLVAPSQSLSITCTVSGFSLTDYDVHWVRQSPGKGLEWLGVIWNDGSTDYNTAFISRLTISKDNSKSQVFFKMNSLQADDTAIYYCARNWYGGYWFAYWGQGTLVTVSA
VL: DIQMTQSPASLSASAGETVTITCRSSENIYSYLAWYQQKQGKSPQLLVYNANALAEGVPSRFSGSGSVTQFSLKINSLQPEDFGSYYCQHHYGTPFTFGSGTKLEIK
notes: also called monoclonal antibody 4237

Tests used:
[1] = target: T1, HA-GCN4 hAPRIL (amino acid residues 105-250) (human, UniProt O75888 105-250); experiment: blocking ELISA, 4-parameter fit; blocked: human APRIL binding to human BCMA-Fc
T1 construct: Bought (R&D Systems); also called HA-tagged GCN4 human APRIL; HA-GCN4-huAPRIL; not shown: N-terminal HA tag; GCN4 isoleucine zipper oligomerization domain
T1 sequence: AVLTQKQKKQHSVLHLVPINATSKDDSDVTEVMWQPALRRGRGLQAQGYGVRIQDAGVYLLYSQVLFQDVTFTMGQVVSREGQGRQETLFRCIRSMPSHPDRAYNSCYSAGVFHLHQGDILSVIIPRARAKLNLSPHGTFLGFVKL
Experimental: (§1) FIGS. 19A-19B depict the antibody inhibition of APRIL binding to TNFSF receptors TACI (FIG. 19A) and BCMA (FIG. 19B). Assay is based on blocking ELISA using recombinant human APRIL (R&D Systems) and Human TACI-Fc. Inhibition was analyzed by non-linear regression using a four parameter fit.
(§2) Recombinant TACI-Fc or BCMA-Fc was coated on 96 well plates in 0.1 M carbonate-bicarbonate buffer (pH 9.6), overnight at 4° C. Plates were washed three times with 1×PBST (PBS+0.025% Tween 20) followed by blocking with 1% BSA in 1×PBS, 37° C. for 1 hour. All subsequent wash steps were carried out with 1×PBST. To assess antibody blocking, either 15 ng/mL or 50 ng/mL HA-GCN4-huAPRIL was preincubated with varying antibody concentrations ranging from 0.03-30 μg/mL in binding buffer comprised of 1% BSA and 0.025% Tween-20 in 1×PBS. Preincubation was carried out at 30° C. for 1 hour with mixing. Antibody-APRIL premix with 50 ng/mL APRIL or 15 ng/mL APRIL was then added to TACI-Fc coated or BCMA-Fc coated plates, respectively, and incubated for an additional hour at 30° C. HA-tagged APRIL binding to either receptor was quantified using a goat polyclonal anti-HA tag-HRP antibody (Abcam) added at a 1:10000 dilution followed by colorimetric development using 100 μl/well of freshly prepared TMB substrate (KPL) carried out for up to 30 minutes at room temperature before quenching enzymatic reaction by the addition of 1N sulfuric acid. ELISA signal was quantified by absorbance at 450 nm. ELISA data was analyzed by non-linear regression. IC₅₀ values were calculated based on a 4 parameter fit of antibody titration curves. […] Non-blocking antibodies Aprly-1 or Aprly-5 (Enzo Biosciences) were used as negative controls. Mouse specific, blocking antibody aprily-1-1 (Adipogen) was generally used as a positive control in experiments using mouse APRIL (HA-GCN4-mAPRIL).

[2] = target: T2, human Tweak (TNFSF12; Abcam) (human, UniProt O43508 94-249, limits assumed); experiment: indirect ELISA, cytokine coated
T2 sequence (looked up): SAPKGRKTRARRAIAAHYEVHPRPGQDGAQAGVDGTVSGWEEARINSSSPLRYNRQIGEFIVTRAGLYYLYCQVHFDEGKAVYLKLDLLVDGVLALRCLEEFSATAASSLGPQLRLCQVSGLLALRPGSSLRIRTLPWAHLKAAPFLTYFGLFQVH

[3] = target: T1, HA-GCN4 hAPRIL (amino acid residues …); experiment: indirect ELISA on human APRIL; column head prints IC50 (pM), legend paragraph 725 calls the values EC50
Excerpt: Purified antibodies were further characterized for APRIL binding, APRIL species cross reactivity (human APRIL vs. mouse APRIL), and receptor blocking activity using TACI-Fc. For binding, an APRIL-based indirect ELISA was used to determine by first approximation the relative affinity of purified anti-APRIL antibodies to either human APRIL or mouse APRIL. ELISA method was as generally described above. […] Blocking and wash steps were completed as described. Binding of anti-APRIL antibodies to APRIL was quantified using an 8 point dilution of test antibody that spanned over a four log scale. Antibody binding to APRIL was detected using a rabbit anti-mouse IgG (H+L)-HRP conjugate (Jackson ImmunoResearch Laboratories). Antibody binding data was analyzed by non-linear regression analysis using a 3 parameter fit to determine max binding and apparent EC₅₀ values. […] Mouse specific antibody Apry-1-1 (Adipogen) was likewise used for quantification of antibody binding to mouse APRIL.

[4] = target: T1, HA-GCN4 hAPRIL (amino acid residues …); experiment: blocking ELISA, 4-parameter fit; blocked: human APRIL binding to human TACI-Fc
Experimental: as §1, §2

[5] = target: T3, HA-GCN4 mAPRIL (amino acid residues 96-241) (mouse, UniProt Q9D777 96-241, Assembles as a homotrimer through the GCN4 zipper; one protomer is given.); experiment: blocking ELISA; blocked: mouse APRIL binding to BCMA
T3 construct: Bought (R&D Systems); also called HA-tagged mouse APRIL (R&D Systems); recombinant mouse APRIL; not shown: N-terminal HA tag and GCN4 isoleucine-zipper trimerisation domain, with any linker, of the bought R&D Systems protein
T3 sequence: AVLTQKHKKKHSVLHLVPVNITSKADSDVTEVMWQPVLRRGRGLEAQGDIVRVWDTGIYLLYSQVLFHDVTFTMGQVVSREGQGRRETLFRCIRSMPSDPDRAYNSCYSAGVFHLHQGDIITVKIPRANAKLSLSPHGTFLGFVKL

| Binder | IC50 [1] | binding result [2] | EC50 [3] | IC50 [4] | IC50 (read off the curve) [5] | binding result [5] |
| --- | --- | --- | --- | --- | --- | --- |
| B1 | 0.66 nM | no binding (tested: 10 µg/ml (p-1128)) | 0.0129 nM | 1.01 nM | ~0.3 µg/mL |  |
| B2 | 2.7 nM | no binding (tested: 10 µg/ml (p-1128)) | 0.0175 nM | 2.25 nM | ~0.06 µg/mL |  |
| B3 | 0.31 nM | no binding (tested: 10 µg/ml (p-1128)) | 0.005 nM | 0.98 nM |  |  |
| B4 | 0.48 nM | no binding (tested: 10 µg/ml (p-1128)) | 0.0166 nM | 0.27 nM |  | binds |
| B5 | 0.22 nM | no binding (tested: 10 µg/ml (p-1128)) | 0.0072 nM |  |  | binds |
| B6 | 0.48 nM | no binding (tested: 10 µg/ml (p-1128)) | 0.0489 nM | 2.9 nM | ~0.3 µg/mL |  |
| B7 | 0.56 nM | no binding (tested: 10 µg/ml (p-1128)) | 0.0126 nM | 0.9 nM |  |  |
